In this experiment the target is ribosomal protein S6 (RPS6) (mouse, UniProt P62754 1-249). Kind of experiment: co-immunoprecipitation with GW182 antiserum from hippocampal neuron lysates, immunoblot. As for the experimental part: Proteins and mRNAs associated with P-body component GW182 were isolated through immunoprecipitation of GW182 by modification of previously published protocols (Keene et al., 2006; Moser et al., 2009). Primary cultures of mouse hippocampal neurons (DIV 14-15) were incubated in serum-reduced medium (0.5% B27 supplement) for 2 hours, followed by […] Actinomycin-D for […] and mock or BDNF-stimulation for 30˜60 min. Cell lysates were harvested in polysomal lysis buffer (100 mM KCl, 5 mM MgCl₂, 10 mM HEPES pH 7.0, 0.5% NP-40) with protease inhibitor cocktail and freshly added 20 mM EDTA, 1 mM DTT, 100 U/mL RNase inhibitor (RNaseOut, Invitrogen) and 400 μM Vanadyl ribonucleoside complexes (SIGMA). Lysates were centrifuged and the supernatants pre-cleared by one-hour incubation with recombinant protein G beads pre-washed in NT2 buffer (50 mM Tris-HCl pH 7.4, 150 mM NaCl, 1 mM MgCl₂, 0.05% NP-40). Antibody coating of protein G beads was carried out with antiserum against GW182 (18033, gift of M. Fritzler) or control isotype-specific serum in NT2 buffer plus protease inhibitor for 4 hours after blocking with NT2 buffer plus 5% BSA and 1 mg/mL heparin for 1 hour. For immunoprecipitation (IP), equal amounts of lysate protein (2-5 mg) was incubated with antibody-coated beads and tumbled for 4 hours at 4° C., followed by washing. […]
A general note: A western blot detects proteins with antibodies after separation by electrophoresis.

B1: GW182 (other)
chain: MRELEAKATKDVERNLSRDLVQEEEQLMEEKKKKKDDKKKKEAAQKKATEQKIKVPEQIKPSVSQPQPANSDNGTSTATSTNNNAKRATASNQQPPPPQQQQPQQEQQQQQPQALPRYPREVPPRFRHQEHKQLLKRGQHFPVIAANLGSAVKVLNSQSESSAVTNQQPQNNGEVQNSKSQSDINHNTSGSHYENCQRGPVSSTSDCSTSCKNAVNDLLEKEAWPSAPGSDPELAPECIDADSASNSESERNITVMASGNTGGEKDGLRNSTGLGSQSKFVVGSSSNNVGHGSSTGPWGFPHGALISTCQVSVDAPESKPESSNNRMNAWGTVSSSSNGGLNPSTLNSASNHGAWPVLENNGLALKGPVGSGSSGINIQCSTIGQMPNNQNINSKVSGSSTHGTWGSLQETCEPEVSGTQKVSFSGQPQNITTETTGPNNTTNFMTSSLPNSGSVQNNELPTSNPGAWRVSTMNHPQIQAPSVMNGTSLSHLSNGESKTGGSYGTTWGAYGSNYSGDKCAGPNGQANGDTVNATLMQPGINGPMGTNFQVNTNKGGGVWEPGTVNSQSSPWGSGNGANSGGSRRGWGSPAQNTGTGLSSVEWNKLPSNQHSNDSANGNGKKLTNGWKSTEEDDQGSATSQTNEQNSVWAKAGGTVESDGSAESTGRLEEKVTGESQSRDRRKIDQHTLLQSIVNRTDLDPRVLSNSGWGQTPIKQNTAWDTETSPRGERKTDNGTEAWGSSATQTFNSGACTDKTSPNSNDTSSVSGWGDPKPTLRWGDSKGSNCQGGWEDDSAATGMIKSNQWGGCKEDKSTWNDSQKSKQGWGDGQKSSQGWSISAGDNWGESSRSNHWGEANKKSSSGGSDSDRSISGWNELGKTSSFTWGNNINPNNSSGWDESSKPNSSQGWGDPPKCNQSLGWGDSSKPVSSPDWNKQQDIVGSWGIPPATSKPPGTGWLGGPIPAPAKEEEPTGWEEPSPESIRRKMEIDDGTSAWGDPSKYNYKNVNMWNKNIPEASGRSDQQAQMHRLLPAASAVSSKETSSGSGWGEPWAEPSTPATTVDNGTSAWGKPIDSGPSWGEPITAASNASTWGSSSVGPQSLSKSGPKSMQDGWCGDDMPLPGSRPTGWEEEEDVEIGMWNSNSSQELNSSLNWPPYTKKMSSKGLSGKKRRRERGMMKGGNKQEDAWINPFVKQFSNISFSRDSPEENVQSNKMDLSGGMLQDKRMEIDKHSLNIGDYNRTVGKGPGSRPQISKESSMERNPYFDKNGNPNMFGVGNTAAQPRGMQQPPAQPLSSSQPNLRAQVPPPLLSPQVPVSLLKYAPNNGGLNPLFGPQQVAMLNQLSQLNQLSQISQLQRLLAQQQRAQSQRSAPSANRQQQDQQGRPLSVQQQMMQQSRQLDPSLLVKQQTPPSQQPLHQPAMKSFLDNVMPHTTPELQKGPSPVNAFSNFPIGLNSNLNVNMDMNSIKEPQSRLRKWTTVDSMSVNTSLDQNSSKHGAISSGFRLEESPFVPYDFMNSSTSPASPPGSIGDGWPRAKSPNGSSSVNWPPEFRPGEPWKGYPNIDPETDPYVTPGSVINSLSINTVREVDHLRDRNSGSSSSLNTTLPSTSAWSSIRASNYNVPLSSTAQSTSARNSDSKLTWSPGSVTNTSLAHELWKVPLPPKNITAPSRPPPGLTGQKPPLSTWDNSPLRVGGGWGNSDARYTPGSSWGESSSGRITNWLVLKNLTPQIDGSTLRTLCMQHGPLITFHLNLPHGNALVRYSSKEEVVKAQKSLHMCVLGNTTILAEFASEEEISRFFAQSQSLTPSPGWQSLGSSQSRLGSLDCSHSFSSRTDVNHWNGAGLSGANCGDLHGTSLWGTPHYSTSLWGPPSSDPRGISSPSPINAFLSVDHLGGGGESM
notes: Endogenous protein pulled down from neuronal lysate with GW182 antiserum 18033 (gift of M. Fritzler) on protein G beads; also called TNRC6a; P-body component GW182
For the molecule B1, the binding result is “no binding”.

For the origin of these results see patent US20150148405A1 (Johns Hopkins, published 2015).
